T1: human neuropeptide Y2 receptor (human, UniProt P49146 1-381)
T1 construct: whole, on cells; also called hNPY2 receptor; hNPY2-R
T1 sequence (looked up): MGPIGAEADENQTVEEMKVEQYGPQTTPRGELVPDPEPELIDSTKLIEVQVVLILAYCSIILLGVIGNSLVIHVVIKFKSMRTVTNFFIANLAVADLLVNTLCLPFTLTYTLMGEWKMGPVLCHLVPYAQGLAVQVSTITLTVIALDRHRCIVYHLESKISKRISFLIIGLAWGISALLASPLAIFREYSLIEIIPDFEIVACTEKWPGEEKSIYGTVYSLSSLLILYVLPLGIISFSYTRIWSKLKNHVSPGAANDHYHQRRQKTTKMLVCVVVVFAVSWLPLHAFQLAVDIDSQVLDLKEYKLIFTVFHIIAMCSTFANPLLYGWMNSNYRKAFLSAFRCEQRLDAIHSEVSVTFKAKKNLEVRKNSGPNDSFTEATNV

B1: Compound 15 (peptide)
peptide: Isovaleryl-APEK([AEEA-AEEA-γGlu-C18 diacid])PEEDASPEEIQRYEVSLRHYYNWLTRQRY-NH2
SMILES: CC[C@H](C)[C@H](NC(=O)[C@H](CCC(=O)O)NC(=O)[C@H](CCC(=O)O)NC(=O)[C@@H]1CCCN1C(=O)[C@H](CO)NC(=O)[C@H](C)NC(=O)[C@H](CC(=O)O)NC(=O)[C@H](CCC(=O)O)NC(=O)[C@H](CCC(=O)O)NC(=O)[C@@H]1CCCN1C(=O)[C@H](CCCCNC(=O)COCCOCCNC(=O)COCCOCCNC(=O)CC[C@H](NC(=O)CCCCCCCCCCCCCCCCC(=O)O)C(=O)O)NC(=O)[C@H](CCC(=O)O)NC(=O)[C@@H]1CCCN1C(=O)[C@H](C)NC(=O)CC(C)C)C(=O)N[C@@H](CCC(N)=O)C(=O)N[C@@H](CCCNC(=N)N)C(=O)N[C@@H](Cc1ccc(O)cc1)C(=O)N[C@@H](CCC(=O)O)C(=O)N[C@H](C(=O)N[C@@H](CO)C(=O)N[C@@H](CC(C)C)C(=O)N[C@@H](CCCNC(=N)N)C(=O)N[C@@H](Cc1c[nH]cn1)C(=O)N[C@@H](Cc1ccc(O)cc1)C(=O)N[C@@H](Cc1ccc(O)cc1)C(=O)N[C@@H](CC(N)=O)C(=O)N[C@@H](Cc1c[nH]c2ccccc12)C(=O)N[C@@H](CC(C)C)C(=O)N[C@H](C(=O)N[C@@H](CCCNC(=N)N)C(=O)N[C@@H](CCC(N)=O)C(=O)N[C@@H](CCCNC(=N)N)C(=O)N[C@@H](Cc1ccc(O)cc1)C(N)=O)[C@@H](C)O)C(C)C
B2: Compound 17 (peptide)
peptide: Isovaleryl-APEK([AEEA-AEEA-γGlu-C18 diacid])PEEDASPAELQRYYVSLRHYYNWLTRQRY-NH2
SMILES: CC(C)CC(=O)N[C@@H](C)C(=O)N1CCC[C@H]1C(=O)N[C@@H](CCC(=O)O)C(=O)N[C@@H](CCCCNC(=O)COCCOCCNC(=O)COCCOCCNC(=O)CC[C@H](NC(=O)CCCCCCCCCCCCCCCCC(=O)O)C(=O)O)C(=O)N1CCC[C@H]1C(=O)N[C@@H](CCC(=O)O)C(=O)N[C@@H](CCC(=O)O)C(=O)N[C@@H](CC(=O)O)C(=O)N[C@@H](C)C(=O)N[C@@H](CO)C(=O)N1CCC[C@H]1C(=O)N[C@@H](C)C(=O)N[C@@H](CCC(=O)O)C(=O)N[C@@H](CC(C)C)C(=O)N[C@@H](CCC(N)=O)C(=O)N[C@@H](CCCNC(=N)N)C(=O)N[C@@H](Cc1ccc(O)cc1)C(=O)N[C@@H](Cc1ccc(O)cc1)C(=O)N[C@H](C(=O)N[C@@H](CO)C(=O)N[C@@H](CC(C)C)C(=O)N[C@@H](CCCNC(=N)N)C(=O)N[C@@H](Cc1c[nH]cn1)C(=O)N[C@@H](Cc1ccc(O)cc1)C(=O)N[C@@H](Cc1ccc(O)cc1)C(=O)N[C@@H](CC(N)=O)C(=O)N[C@@H](Cc1c[nH]c2ccccc12)C(=O)N[C@@H](CC(C)C)C(=O)N[C@H](C(=O)N[C@@H](CCCNC(=N)N)C(=O)N[C@@H](CCC(N)=O)C(=O)N[C@@H](CCCNC(=N)N)C(=O)N[C@@H](Cc1ccc(O)cc1)C(N)=O)[C@@H](C)O)C(C)C
B3: Compound 21 (peptide)
peptide: Isovaleryl-APEK([AEEA-AEEA-γGlu-C18 diacid])PEEDASPEELQKYYVSLRHYYNWLTRQRY-NH2
SMILES: CC(C)CC(=O)N[C@@H](C)C(=O)N1CCC[C@H]1C(=O)N[C@@H](CCC(=O)O)C(=O)N[C@@H](CCCCNC(=O)COCCOCCNC(=O)COCCOCCNC(=O)CC[C@H](NC(=O)CCCCCCCCCCCCCCCCC(=O)O)C(=O)O)C(=O)N1CCC[C@H]1C(=O)N[C@@H](CCC(=O)O)C(=O)N[C@@H](CCC(=O)O)C(=O)N[C@@H](CC(=O)O)C(=O)N[C@@H](C)C(=O)N[C@@H](CO)C(=O)N1CCC[C@H]1C(=O)N[C@@H](CCC(=O)O)C(=O)N[C@@H](CCC(=O)O)C(=O)N[C@@H](CC(C)C)C(=O)N[C@@H](CCC(N)=O)C(=O)N[C@@H](CCCCN)C(=O)N[C@@H](Cc1ccc(O)cc1)C(=O)N[C@@H](Cc1ccc(O)cc1)C(=O)N[C@H](C(=O)N[C@@H](CO)C(=O)N[C@@H](CC(C)C)C(=O)N[C@@H](CCCNC(=N)N)C(=O)N[C@@H](Cc1c[nH]cn1)C(=O)N[C@@H](Cc1ccc(O)cc1)C(=O)N[C@@H](Cc1ccc(O)cc1)C(=O)N[C@@H](CC(N)=O)C(=O)N[C@@H](Cc1c[nH]c2ccccc12)C(=O)N[C@@H](CC(C)C)C(=O)N[C@H](C(=O)N[C@@H](CCCNC(=N)N)C(=O)N[C@@H](CCC(N)=O)C(=O)N[C@@H](CCCNC(=N)N)C(=O)N[C@@H](Cc1ccc(O)cc1)C(N)=O)[C@@H](C)O)C(C)C
B4: Compound 16 (peptide)
peptide: Isovaleryl-APEK([AEEA-AEEA-γGlu-C18 diacid])PEEDASPEETQRYYVTLRHYYNWLTRQRY-NH2
SMILES: CC(C)CC(=O)N[C@@H](C)C(=O)N1CCC[C@H]1C(=O)N[C@@H](CCC(=O)O)C(=O)N[C@@H](CCCCNC(=O)COCCOCCNC(=O)COCCOCCNC(=O)CC[C@H](NC(=O)CCCCCCCCCCCCCCCCC(=O)O)C(=O)O)C(=O)N1CCC[C@H]1C(=O)N[C@@H](CCC(=O)O)C(=O)N[C@@H](CCC(=O)O)C(=O)N[C@@H](CC(=O)O)C(=O)N[C@@H](C)C(=O)N[C@@H](CO)C(=O)N1CCC[C@H]1C(=O)N[C@@H](CCC(=O)O)C(=O)N[C@@H](CCC(=O)O)C(=O)N[C@H](C(=O)N[C@@H](CCC(N)=O)C(=O)N[C@@H](CCCNC(=N)N)C(=O)N[C@@H](Cc1ccc(O)cc1)C(=O)N[C@@H](Cc1ccc(O)cc1)C(=O)N[C@H](C(=O)N[C@H](C(=O)N[C@@H](CC(C)C)C(=O)N[C@@H](CCCNC(=N)N)C(=O)N[C@@H](Cc1c[nH]cn1)C(=O)N[C@@H](Cc1ccc(O)cc1)C(=O)N[C@@H](Cc1ccc(O)cc1)C(=O)N[C@@H](CC(N)=O)C(=O)N[C@@H](Cc1c[nH]c2ccccc12)C(=O)N[C@@H](CC(C)C)C(=O)N[C@H](C(=O)N[C@@H](CCCNC(=N)N)C(=O)N[C@@H](CCC(N)=O)C(=O)N[C@@H](CCCNC(=N)N)C(=O)N[C@@H](Cc1ccc(O)cc1)C(N)=O)[C@@H](C)O)[C@@H](C)O)C(C)C)[C@@H](C)O
B5: Compound 19 (peptide)
peptide: Isovaleryl-APEK([AEEA-AEEA-γGlu-C18 diacid])PEADASPEELQQYYVSLRHYYNWLTRQRY-NH2
SMILES: CC(C)CC(=O)N[C@@H](C)C(=O)N1CCC[C@H]1C(=O)N[C@@H](CCC(=O)O)C(=O)N[C@@H](CCCCNC(=O)COCCOCCNC(=O)COCCOCCNC(=O)CC[C@H](NC(=O)CCCCCCCCCCCCCCCCC(=O)O)C(=O)O)C(=O)N1CCC[C@H]1C(=O)N[C@@H](CCC(=O)O)C(=O)N[C@@H](C)C(=O)N[C@@H](CC(=O)O)C(=O)N[C@@H](C)C(=O)N[C@@H](CO)C(=O)N1CCC[C@H]1C(=O)N[C@@H](CCC(=O)O)C(=O)N[C@@H](CCC(=O)O)C(=O)N[C@@H](CC(C)C)C(=O)N[C@@H](CCC(N)=O)C(=O)N[C@@H](CCC(N)=O)C(=O)N[C@@H](Cc1ccc(O)cc1)C(=O)N[C@@H](Cc1ccc(O)cc1)C(=O)N[C@H](C(=O)N[C@@H](CO)C(=O)N[C@@H](CC(C)C)C(=O)N[C@@H](CCCNC(=N)N)C(=O)N[C@@H](Cc1c[nH]cn1)C(=O)N[C@@H](Cc1ccc(O)cc1)C(=O)N[C@@H](Cc1ccc(O)cc1)C(=O)N[C@@H](CC(N)=O)C(=O)N[C@@H](Cc1c[nH]c2ccccc12)C(=O)N[C@@H](CC(C)C)C(=O)N[C@H](C(=O)N[C@@H](CCCNC(=N)N)C(=O)N[C@@H](CCC(N)=O)C(=O)N[C@@H](CCCNC(=N)N)C(=O)N[C@@H](Cc1ccc(O)cc1)C(N)=O)[C@@H](C)O)C(C)C
B6: Compound 20 (peptide)
peptide: Isovaleryl-APEK([AEEA-AEEA-γGlu-C18 diacid])PEEDAAPEELQRYYVELRHYYNWLTRQRY-NH2
SMILES: CC(C)CC(=O)N[C@@H](C)C(=O)N1CCC[C@H]1C(=O)N[C@@H](CCC(=O)O)C(=O)N[C@@H](CCCCNC(=O)COCCOCCNC(=O)COCCOCCNC(=O)CC[C@H](NC(=O)CCCCCCCCCCCCCCCCC(=O)O)C(=O)O)C(=O)N1CCC[C@H]1C(=O)N[C@@H](CCC(=O)O)C(=O)N[C@@H](CCC(=O)O)C(=O)N[C@@H](CC(=O)O)C(=O)N[C@@H](C)C(=O)N[C@@H](C)C(=O)N1CCC[C@H]1C(=O)N[C@@H](CCC(=O)O)C(=O)N[C@@H](CCC(=O)O)C(=O)N[C@@H](CC(C)C)C(=O)N[C@@H](CCC(N)=O)C(=O)N[C@@H](CCCNC(=N)N)C(=O)N[C@@H](Cc1ccc(O)cc1)C(=O)N[C@@H](Cc1ccc(O)cc1)C(=O)N[C@H](C(=O)N[C@@H](CCC(=O)O)C(=O)N[C@@H](CC(C)C)C(=O)N[C@@H](CCCNC(=N)N)C(=O)N[C@@H](Cc1c[nH]cn1)C(=O)N[C@@H](Cc1ccc(O)cc1)C(=O)N[C@@H](Cc1ccc(O)cc1)C(=O)N[C@@H](CC(N)=O)C(=O)N[C@@H](Cc1c[nH]c2ccccc12)C(=O)N[C@@H](CC(C)C)C(=O)N[C@H](C(=O)N[C@@H](CCCNC(=N)N)C(=O)N[C@@H](CCC(N)=O)C(=O)N[C@@H](CCCNC(=N)N)C(=O)N[C@@H](Cc1ccc(O)cc1)C(N)=O)[C@@H](C)O)C(C)C

*1 amine or outer side, *2 acyl side, *3 side chain or, on linkers, in order; H or OH if unused. Side-chain parts run from the residue outwards. The star is where a group is joined. C18 diacid = O=C(O)CCCCCCCCCCCCCCCCC(=O)*; γGlu = O=C(O)[C@H](CCC(=O)[*:2])N[*:1]; Isovaleryl = CC(C)CC(=O)*; AEEA = NCCOCCOCC(=O)O

For this experiment, the target named is T1, human neuropeptide Y2 receptor. The experiment in a line: radioligand competition (125I-PYY(1-36)), hNPY2R membranes. As for the experimental part:
The filtration RLB assay was carried out in 96-well plates in a final volume of 100 μl per well. Freeze-dried test peptides were dissolved in 100% dimethyl sulfoxide (DMSO) to stock solutions of 1 mM and serial dilutions were performed in assay buffer (50 mM HEPES, 5 mM MgCl₂, 1 mM CaCl₂, pH 7.4) containing 0.2% ovalbumin. […] Next, 80 μL membranes (HTS066M, ChemiSCREEN™ Human Neuropeptide Y2 Receptor Membrane Preparation, CHEMICON) were added to each well to give a final protein concentration of 0.5 μg/well. The plates were sealed and incubated at room temperature for 2 hours in a plate shaker set at 400 rpm. The incubation was stopped by vacuum filtration onto 0.5% poly-ethylene amine (PEI) presoaked GF/C filters using a 96-well FilterMate™ harvester (Perkin Elmer) followed by four washes with 300 μl/well ice-cold wash buffer (50 mM HEPES, 500 mM NaCl, pH7.4). Filter plates were then dried for 60 min at room temperature and the bottom of the plates was sealed with backing tape UniFilter-96. Finally, 50 μl/well scintillation counter cocktail (Microscint20, Packard) was added and the radioactivity was counted in the Packard TopCount NXT scintillation counter. IC₅₀ values (the half maximal inhibitory concentration of the agonist) were calculated by nonlinear regression analysis of sigmoidal dose-response curves.
Background: Displacement assays read how much labelled ligand stays bound in the presence of the test substance.
For the molecule B1, the Ki is 2.89 nM.
Turning to B2, the affinity, expressed as Ki, was 0.93 nM.
Molecule B3 came in with a Ki of 1.52 nM.
For B4, the Ki stood at 3.09 nM.
Molecule B5 yielded a Ki of 0.39 nM.
B6: the Ki is 2.57 nM.

A word on the Ki: it is the equilibrium dissociation constant of an inhibitor or competing ligand from its target. Low values mean a stronger hold on the target, high ones a looser hold on the target.
